Eleven molecules from publication PMC9127587, “Antibody recognition of complement factor H reveals a flexible loop involved in atypical hemolytic uremic syndrome pathogenesis” (The Journal of Biological Chemistry, 2022) can be followed below.

Numbering of substitutions follows the chain as printed. Names may count otherwise.

B1: VHH4 (VHH)
VHH: QVQLVESGGGLVQAGGSLRLSCAASGLTVDDYAIGWFRQAPGKEREGVSCISSSNGSTYYADSVKGRFTISSDNAKNTAYLQMNSLKPEDTAVYYCAAAVSPNLECGTGPFGIYASYYGMDYWGQGTQVTVSS
notes: alpaca VHH selected by phage display; CDR3 is Ala99-Tyr122; Disulfide bond between Cys50 and Cys106; also called VHH4 WT; WT; source: E. coli BL21 (DE3), purified (Ni-NTA, SEC)
B2: VHH4 P102A (VHH)
VHH: B1 VHH with P102A
B3: VHH4 Y95A (VHH)
VHH: B1 VHH with Y95A
B4: VHH4 Y117A (VHH)
VHH: B1 VHH with Y117A
B5: VHH4 P110A (VHH)
VHH: B1 VHH with P110A
B6: VHH4 T108A (VHH)
VHH: B1 VHH with T108A
B7: VHH4 G119A (VHH)
VHH: B1 VHH with G119A
B8: VHH4 W123A (VHH)
VHH: B1 VHH with W123A
B9: VHH4 L104A (VHH)
VHH: B1 VHH with L104A
notes: as the VHH chain of m4 (PDB 7WKI) with the stated change; also called L104A_(VHH4); Leu104A_(VHH4); source: E. coli BL21 (DE3), purified (Ni-NTA, SEC), as the wildtype
B10: VHH4 Y118A (VHH)
VHH: B1 VHH with Y118A
notes: as the VHH chain of m4 (PDB 7WKI) with the stated change; also called Y118A_(VHH4); Tyr118A_(VHH4); source: E. coli BL21 (DE3), purified (Ni-NTA, SEC), as the wildtype
B11: VHH4 D121A (VHH)
VHH: B1 VHH with D121A
notes: as the VHH chain of m4 (PDB 7WKI) with the stated change; also called D121A_(VHH4); Asp121A_(VHH4); source: E. coli BL21 (DE3), purified (Ni-NTA, SEC), as the wildtype

In the first assay the target is CFH18-20 (human complement factor H CCP18-20) with myc tag and His-tag (human) (UniProt P08603). Briefly: SPR; CFH18-20 (or W1183A) immobilised on a CM5 chip by amine coupling at around 300 RU; VHH4 or its mutants injected as analyte at 30 uL/min; single-cycle kinetics; PBS pH 7.4, Tween 20 (0.005%), 25 °C; Biacore 8K.
CFH18-20 (human complement factor H CCP18-20) with myc tag and His-tag (human), sequence (P08603 1046-1231): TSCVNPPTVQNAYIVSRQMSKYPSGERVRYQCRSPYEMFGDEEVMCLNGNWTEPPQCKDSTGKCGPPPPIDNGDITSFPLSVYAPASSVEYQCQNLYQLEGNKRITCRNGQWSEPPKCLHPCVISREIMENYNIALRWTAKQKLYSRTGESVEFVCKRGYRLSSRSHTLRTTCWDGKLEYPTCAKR
Conditions: not given
A word on the Kd: it is the free concentration of one partner at which half of the binding sites on the other are occupied at equilibrium, for simple one-to-one binding. Read a high Kd as a looser complex. For orientation: koff means a measure of how fast the partners let go of each other. Higher therefore signals a short-lived complex. In general, kon refers to the rate constant with which the complex forms. Higher therefore signals fast association. The molecule B1 registered a Kd of 0.00171 nM, a koff of 5.53e-08 s⁻¹ and a kon of 31400 M⁻¹ s⁻¹.

In the case of B2, the Kd was found to be 0.219 nM, the koff is 4.07e-06 s⁻¹ and the kon was determined as 23700 M⁻¹ s⁻¹.

Consider B3, for which the Kd is 0.166 nM, the koff came to 4.42e-06 s⁻¹ and the kon was found to be 30400 M⁻¹ s⁻¹.

The molecule B4 yielded a Kd of 0.498 nM, a koff of 5.39e-07 s⁻¹ and a kon of 11300 M⁻¹ s⁻¹.

B5 yielded a Kd of 0.504 nM, a koff of 7.11e-06 s⁻¹ and a kon of 9210 M⁻¹ s⁻¹.

In turn, B6 had a Kd of 0.146 nM, a koff of 2.57e-06 s⁻¹ and a kon of 17900 M⁻¹ s⁻¹.

B7 showed a Kd of 9.18 nM, a koff of 0.000611 s⁻¹ and a kon of 62800 M⁻¹ s⁻¹.

For the molecule B8, the Kd was determined as 5.05 nM, the koff came to 0.000159 s⁻¹ and the kon stood at 31200 M⁻¹ s⁻¹.

In a further assay the target is CFH18-20 W1183A_(CCP20) (human) (UniProt P08603). The description is as above.
CFH18-20 W1183A_(CCP20) (human), sequence (P08603 1046-1231 W1183A): as the sequence (P08603 1046-1231) above, with W138A counted along it
Conditions: not given
Turning to B1, the Kd is greater than 1000 nM.

In a further assay the target is CFH18-20 (human complement factor H CCP18-20) with myc tag and His-tag (human) (UniProt P08603). Briefly: ITC; CFH18-20 in the cell (5-15 uM), VHH4 or mutants in the syringe (50-150 uM), 20 injections; PBS pH 7.4, 25 °C; iTC200.
Conditions: not given
A word on the stoichiometry N: it is the number of molecules, sites or subunits per partner or assembly. B1 came in with a Kd of 2.01 nM, a dH of -28.9 kcal/mol and a stoichiometry N of 0.895.

Molecule B2 yielded a Kd of 4.11 nM, a dH of -29.6 kcal/mol and a stoichiometry N of 0.961.

B3 gave a Kd of 2.27 nM, a dH of -28.2 kcal/mol and a stoichiometry N of 0.842.

B4 registered a Kd of 5.87 nM, a dH of -28.1 kcal/mol and a stoichiometry N of 0.933.

In the case of B5, the Kd was found to be 5.03 nM, the dH was -29.8 kcal/mol and the stoichiometry N amounted to 0.838.

On to B6, for which the Kd was found to be 8.79 nM, the dH is -27.2 kcal/mol and the stoichiometry N was found to be 0.924.

B7: the Kd came to 7.26 nM, the dH is -19.4 kcal/mol and the stoichiometry N worked out at 0.865.

For B8, the Kd was 3.92 nM, the dH is -20.9 kcal/mol and the stoichiometry N was 0.866.

The target in a further assay is T1, CFH18-20 (human complement factor H CCP18-20) with myc tag and His-tag (Homo sapiens, UniProt P08603).
T1 construct: complement factor H (CFH), human, domains CCP18-20; Construct for SPR and ITC; PDB 7WKI holds the His-only form of the same protein; also called CFH18-20 WT; CFH CCP18-20; source: Expi293 cells, transfected, purified from the supernatant (Ni-NTA, SEC); not shown: myc, C-terminal, kept; His-tag, C-terminal, kept
T1 sequence (P08603 1046-1231): as the sequence (P08603 1046-1231) above
The assay is described as above. The following applies: both partners purified.
Turning to B9, the Kd was 166 ± 40.3 nM, the dH is -24.5 ± 0.99 kcal/mol and the “stoichiometry N” value stood at 0.947 ± 0.061.

Consider B10, for which the Kd was 410 ± 26.4 nM, the dH is -19.4 ± 0.33 kcal/mol and the “stoichiometry N” value came to 0.947 ± 0.041.

With B11, binding was put at a Kd of 361 ± 64.9 nM, the dH was -29.5 ± 1.14 kcal/mol and the “stoichiometry N” value is 1 ± 0.019.

The target in another assay is T2, CFH18-20 (human complement factor H CCP18-20) with His-tag only (Homo sapiens, UniProt P08603).
T2 construct: complement factor H (CFH), human, domains CCP18-20; Construct for crystallization; Domain CCP18 was not observed in the crystal structure; also called CFH18-20 with His-tag; source: Expi293 cells, transfected, purified from the supernatant (Ni-NTA, SEC); not shown: His-tag, C-terminal, kept
T2 sequence (P08603 1046-1231): as above
The experiment in a line: crystal structure; complex of CFH18-20 with His-tag and VHH4 mixed at 1:1.2 and purified by SEC; crystals at 20 °C in 200 mM sodium phosphate monobasic, 20% PEG 3350; 2.6 Å. As to conditions: both partners purified.
For B1, the binding result was “binds”.

The next assay addresses T1, CFH18-20 (human complement factor H …). Briefly: SPR; CFH18-20 (or W1183A) immobilised on a CM5 chip by amine coupling at around 300 RU; VHH4 or its mutants injected as analyte at 30 uL/min; single-cycle kinetics; PBS pH 7.4, Tween 20 (0.005%), 25 °C; Biacore 8K. The following applies: both partners purified.
As to B9, the Kd was determined as 44.1 ± 2.3 nM, the koff is 0.000489 s⁻¹ and the kon was determined as 11200 M⁻¹ s⁻¹.

For B10, the affinity, expressed as Kd, was 2200 ± 732 nM; the koff worked out at 0.0298 s⁻¹; the kon turned out to be 15800 M⁻¹ s⁻¹.

For the molecule B11, binding was characterised by a dissociation constant (Kd) of 127 ± 30 nM, the koff is 0.000545 s⁻¹ and the kon was found to be 4340 M⁻¹ s⁻¹.
